This note sets out measurements from patent US20230203146A1 (Boehringer Ingelheim, published 2023).

Like-named read-outs stand apart in the source and are kept apart here.

By IC50 is commonly meant the concentration needed to halve the response being measured. In general, Kd refers to the free concentration of one partner at which half of the binding sites on the other are occupied at equilibrium, for simple one-to-one binding. As usually defined, the koff is a measure of how fast the partners let go of each other. What is called kon is a measure of how fast the partners come together.

In test [1] the target is T1, FLAG-tagged cynomolgus Ang2 (cynomolgus, UniProt O15123 19-496 (human entry), limits assumed).
T1 construct: N-terminally FLAG-tagged, conditioned medium of HEK293T cells; also called cAng2; FLAG-cAng2
T1 chain: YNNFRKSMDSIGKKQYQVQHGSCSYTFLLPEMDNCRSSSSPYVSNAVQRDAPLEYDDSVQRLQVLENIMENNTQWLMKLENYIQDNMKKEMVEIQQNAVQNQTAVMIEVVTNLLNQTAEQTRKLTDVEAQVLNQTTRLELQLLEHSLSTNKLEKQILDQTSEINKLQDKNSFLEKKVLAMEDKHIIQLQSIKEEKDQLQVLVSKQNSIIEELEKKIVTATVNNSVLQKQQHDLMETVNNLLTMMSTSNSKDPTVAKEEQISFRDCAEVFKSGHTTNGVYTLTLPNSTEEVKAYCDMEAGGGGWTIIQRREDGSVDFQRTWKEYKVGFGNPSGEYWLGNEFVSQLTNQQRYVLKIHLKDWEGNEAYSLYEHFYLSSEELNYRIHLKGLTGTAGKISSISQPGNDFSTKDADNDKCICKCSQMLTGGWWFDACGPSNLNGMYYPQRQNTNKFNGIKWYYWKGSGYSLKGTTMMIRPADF
Nature of the test: competition ELISA: FLAG-cAng2 binding to coated cTie2-Fc. The procedure: (§1) In brief, 2 μg/mL of recombinant mouse Tie2-Fc or cyno Tie2-Fc is coated overnight at 4° C. in a 96-well MaxiSorp plate (Nunc, Wiesbaden, Germany). Coated wells are blocked with a 1% casein solution.
(In general: ELISA stands for enzyme-linked immunosorbent assay.)

Test [2] deals with T2, FLAG-tagged mouse Ang2 (mouse, UniProt O35608 19-496).
T2 construct: N-terminally FLAG-tagged, conditioned medium of HEK293T cells; also called mAng2; FLAG-mAng2
T2 sequence: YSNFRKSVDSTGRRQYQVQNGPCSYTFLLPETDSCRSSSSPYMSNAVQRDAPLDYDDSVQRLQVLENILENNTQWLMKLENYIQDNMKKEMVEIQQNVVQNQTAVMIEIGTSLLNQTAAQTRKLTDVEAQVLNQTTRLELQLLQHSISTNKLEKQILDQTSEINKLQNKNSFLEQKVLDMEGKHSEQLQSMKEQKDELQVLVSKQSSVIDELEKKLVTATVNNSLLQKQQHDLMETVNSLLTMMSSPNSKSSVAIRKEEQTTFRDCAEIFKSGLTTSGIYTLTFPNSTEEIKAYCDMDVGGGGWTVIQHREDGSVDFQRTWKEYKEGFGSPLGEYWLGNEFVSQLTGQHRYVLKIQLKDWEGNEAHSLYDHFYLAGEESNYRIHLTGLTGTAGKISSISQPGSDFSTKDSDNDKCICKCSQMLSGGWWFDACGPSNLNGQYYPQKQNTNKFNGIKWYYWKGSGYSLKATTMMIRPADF
Nature of the test: competition ELISA: FLAG-mAng2 binding to coated mTie2-Fc. The protocol: as §1

Test [3] concerns the target T3, recombinant mouse Ang2-FLD (mouse, UniProt O35608 275-496, limits assumed).
T3 construct: domain: FLD
T3 sequence (looked up): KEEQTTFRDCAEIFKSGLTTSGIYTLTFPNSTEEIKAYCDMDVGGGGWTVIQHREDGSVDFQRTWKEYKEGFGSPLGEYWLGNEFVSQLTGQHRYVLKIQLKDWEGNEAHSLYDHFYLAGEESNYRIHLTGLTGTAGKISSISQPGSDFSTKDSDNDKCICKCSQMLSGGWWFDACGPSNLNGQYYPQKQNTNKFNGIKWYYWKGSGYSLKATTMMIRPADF
Description: SPR (Biacore T100), VHH immobilized, Ang2-FLD injected. For orientation: SPR reads the build-up and loss of mass on a sensor chip optically.

For test [4], the target named is T4, recombinant rat Ang2-FLD (rat, UniProt O35462 275-496, limits assumed).
T4 construct: domain: FLD
T4 sequence (looked up): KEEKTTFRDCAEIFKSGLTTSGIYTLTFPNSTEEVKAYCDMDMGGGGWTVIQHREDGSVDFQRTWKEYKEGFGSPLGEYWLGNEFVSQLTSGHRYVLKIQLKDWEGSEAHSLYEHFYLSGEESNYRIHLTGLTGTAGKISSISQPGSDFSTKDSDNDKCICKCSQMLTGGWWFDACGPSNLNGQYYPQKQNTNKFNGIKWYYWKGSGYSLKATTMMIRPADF
Described as above.

For test [5], the target named is T5, recombinant human Ang2-FLD (human, UniProt O15123 275-496, limits assumed).
T5 construct: domain: FLD
T5 sequence (looked up): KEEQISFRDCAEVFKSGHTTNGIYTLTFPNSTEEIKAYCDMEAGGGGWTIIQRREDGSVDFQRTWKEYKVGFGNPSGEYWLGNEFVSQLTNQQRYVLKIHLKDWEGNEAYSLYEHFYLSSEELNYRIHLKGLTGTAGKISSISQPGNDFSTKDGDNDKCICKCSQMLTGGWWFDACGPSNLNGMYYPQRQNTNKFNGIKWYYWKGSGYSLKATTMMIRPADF
Described as above.

In test [6] the target is T6, recombinant cynomolgus Ang2-FLD (cynomolgus, UniProt A0A2K5VNX6 275-496).
T6 construct: domain: FLD; also called cyno Ang2-FLD
T6 sequence: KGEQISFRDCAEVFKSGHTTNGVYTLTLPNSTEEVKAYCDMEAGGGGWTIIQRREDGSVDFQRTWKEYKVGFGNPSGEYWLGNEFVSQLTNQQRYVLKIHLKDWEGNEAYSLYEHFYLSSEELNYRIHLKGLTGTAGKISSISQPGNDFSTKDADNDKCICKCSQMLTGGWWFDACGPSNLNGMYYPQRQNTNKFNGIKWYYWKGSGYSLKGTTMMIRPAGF
The description is as above.

In test [7] the target is T2, FLAG-tagged mouse Ang2. Nature of the test: competition ELISA: FLAG-mAng2 binding to coated mTie2-Fc. The procedure:
as §1
The source holds these as a separate data set.

Test [8] addresses T1, FLAG-tagged cynomolgus Ang2. Description: competition ELISA: FLAG-cAng2 binding to coated cTie2-Fc. The procedure:
as §1

The target is the same in test [9]. The description is as above. The protocol: as §1
For test [10], the target named is T2, FLAG-tagged mouse Ang2. Description: competition ELISA: FLAG-mAng2 binding to coated mTie2-Fc. The procedure:
as §1
This is another data set of the same source.

B1: VHH 00932 (VHH, not shown: small tags and cut ends)
VHH: EVQLVESGGGLVQPGGSLRLSCAVSGITLDDYAIGWFRQAPGKEREGVSSIRDNGGSTYYADSVKGRFTISSDNSKNTVYLQMNSLRPEDTAVYYCAAVPAGRLRYGEQWYPIYEYDAWGQGTLVTVSS
notes: Cycle 3 variant of 28D10 on the 00908 backbone
For B1, the IC50 in [1] came out at 0.054 nM; in test [2] it was 0.038 nM.

B2: VHH 00956 (VHH, not shown: small tags and cut ends)
VHH: EVQLVESGGGLVQPGGSLRLSCAASGFTLDDYAIGWFRQAPGKEREGVSAIRSSGGSTYYADSVKGRFTISSDNSKNTVYLQMNSLRPEDTAVYYCAAVPAGRLRFGEQWYPLYEYDAWGQGTLVTVSS
With B2, the Kd in test [3] turned out to be 4 nM; in test [4] it was 13 nM; in test [5] it was 1.2 nM; in test [6], 0.72 nM. Besides, the koff in [3] was 0.0039 s⁻¹; in test [4] it was 0.0052 s⁻¹; in [5], 0.0015 s⁻¹; in test [6], 0.0013 s⁻¹. In addition, the kon in [3] is 980000 M⁻¹ s⁻¹; in test [4] it was 420000 M⁻¹ s⁻¹; in test [5] it was 1.3e+06 M⁻¹ s⁻¹; in [6] it was 1.7e+06 M⁻¹ s⁻¹. Moreover, the IC50 amounted to 0.83 nM in [1] and 2.2 nM in [2].

B3: VHH 00935 (VHH, not shown: small tags and cut ends)
VHH: EVQLVESGGGLVQPGGSLRLSCAASGITLDDYAIGWFRQAPGKEREGVSAIRSSGGSTYYADSVKGRFTISSDNSKNTVYLQMNSLRPEDTAVYYCAAVPAGRLRYGEQWYPIYEYDAWGQGTLVTVSS
notes: as for B1
Turning to B3, the IC50 in test [1] is 0.069 nM; in test [2], 0.078 nM.

B4: VHH 00938 (VHH, not shown: small tags and cut ends)
VHH: EVQLVESGGGLVQPGGSLRLSCAVSGITLDDYAIGWFRQAPGKEREGVSAIRSSGGSTYYADSVKGRFTISSDNSKNTVYLQMNSLRPEDTAVYYCAAVPAGRLRYGEQWYPIYEYDAWGQGTLVTVSS
notes: as for B1
With B4, the Kd came out at 0.05 nM in test [3], 0.14 nM in test [4], 0.017 nM in test [5] and 0.0087 nM in test [6]. Further, the koff in test [3] is 5.6e-05 s⁻¹; in [4], 7.2e-05 s⁻¹; in test [5] it was 2.8e-05 s⁻¹; in test [6], 2.2e-05 s⁻¹. Besides, the kon in test [3] came out at 1.1e+06 M⁻¹ s⁻¹; in test [4], 510000 M⁻¹ s⁻¹; in [5], 1.6e+06 M⁻¹ s⁻¹; in test [6], 2.6e+06 M⁻¹ s⁻¹. Besides, the IC50 came out at 0.091 nM in [1] and 0.055 nM in [2].

B5: VHH 00933 (VHH, not shown: small tags and cut ends)
VHH: EVQLVESGGGLVQPGGSLRLSCAASGITLDDYAIGWFRQAPGKEREGVSAIRDNGGSTYYADSVKGRFTISSDNSKNTVYLQMNSLRPEDTAVYYCAAVPAGRLRYGEQWYPIYEYDAWGQGTLVTVSS
notes: as for B1
On to B5, for which the results for the IC50 in test [1] and in [2] were 0.071 nM and 0.062 nM, respectively.

B6: VHH 37F02 (VHH, not shown: small tags and cut ends)
VHH: EVQLVESGGGLVQPGGSLRLSCAASGFALDYYAIGWFRQAPGKEREGVSCISSSDGITYYVDSVKGRFTISRDNAKNTVYLQMNSLKPEDTAVYYCATDSGGYIDYDCMGLGYDYWGQGTQVTVSS
notes: Parental llama VHH; also called 037F02
On to B6, for which the IC50 was 0.11 nM in [7], 0.15 nM in test [8], 0.15 nM in [9] and 0.11 nM in test [10].

B7: VHH 00927 (VHH, not shown: small tags and cut ends)
VHH: EVQLVESGGGLVQPGGSLRLSCAASGFALDYYAIGWFRQAPGKEREGVSCISSSGGITYYADSVKGRFTISRDNSKNTVYLQMNSLRPEDTAVYYCATDSGGYIDYDCRGLGYDYWGQGTLVTVSS
As for B7, the IC50 in test [9] was 0.33 nM; in [10], 0.19 nM.

B8: VHH 00930 (VHH, not shown: small tags and cut ends)
VHH: EVQLVESGGGLVQPGGSLRLSCAASGFALDYYAIGWFRQAPGKEREGVSCISSSGGITYYADSVKGRFTISRDNSKNTVYLQMNSLRPEDTAVYYCATESGGYIDYDCRGLGYDYWGQGTLVTVSS
As to B8, the IC50 in test [9] was 0.31 nM; in test [10], 0.17 nM.

B9: VHH 00931 (VHH, not shown: small tags and cut ends)
VHH: EVQLVESGGGLVQPGGSLRLSCAASGFALDYYAIGWFRQAPGKEREGVSCISSSGGITYYADSVKGRFTISRDNSKNTVYLQMNSLRPEDTAVYYCATESGGYIDYDCSGLGYDYWGQGTLVTVSS
Consider B9, for which the IC50 stood at 0.29 nM in test [9] and 0.15 nM in [10].

B10: VHH 00926 (VHH, not shown: small tags and cut ends)
VHH: EVQLVESGGGLVQPGGSLRLSCAASGFALDYYAIGWFRQAPGKEREGVSCISSSGGITYYADSVKGRFTISRDNSKNTVYLQMNSLRPEDTAVYYCATDSGGYIDYDCQGLGYDYWGQGTLVTVSS
As to B10, the IC50 was 0.29 nM in test [9] and 0.2 nM in test [10].

B11: VHH 00929 (VHH, not shown: small tags and cut ends)
VHH: EVQLVESGGGLVQPGGSLRLSCAASGFALDYYAIGWFRQAPGKEREGVSCISSSGGITYYADSVKGRFTISRDNSKNTVYLQMNSLRPEDTAVYYCATESGGYIDYDCQGLGYDYWGQGTLVTVSS
As for B11, the results for the IC50 in test [9] and in [10] were 0.25 nM and 0.15 nM, respectively.
